The supplement of paper PMC9170038

Tested on: MS2 coat protein
Experiment: apparent KD of MS2 coat protein; designed switch direction (-1 OFF switch, 1 ON switch): -1; higher = weaker reporter binding
In short: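 Stalled E. coli RNA polymerase transcribed designed RNA switches on Illumina chips, which were then titrated with SNAP-549-labelled MS2 coat protein, doubling from 0.7 or 1.5 nM to 3 µM. Steps lasted from 0.8–1.5 h at the lowest concentration to 10–20 min at the highest. The apparent KD is each design's median over clusters of curve-fitted normalised fluorescence.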

[1] = input ligand: microRNA oligo, concentration not stated
[2] = Eterna round: R95, input ligand: microRNA oligo, concentration not stated

Sequence	apparent KD of MS2 coat protein (input ligand: FMN 200 uM) [nM]	apparent KD of MS2 coat protein (input ligand: none) [nM]	apparent KD of MS2 coat protein [1] [nM]	apparent KD of MS2 coat protein [2] [nM]	apparent KD of MS2 coat protein (Eterna round: R95, input ligand: FMN 200 uM) [nM]	apparent KD of MS2 coat protein (Eterna round: R95, input ligand: none) [nM]
AGAUCACAUGAGGAUCACCCAUGUGAGGAUAUAGAUUCAAGAGCUUCGGCUCUACAGUCUAGAAGGCACUAUGA [EX1 #46] (Eterna round: R97, puzzle: Exclusion 1)	30.4	25.7				
UAGACCUCGUCAGGAUAUCCAGGUUCUUCGCCCGGAGAAGGGACAUGAGGAUCACCCAUGUAGGAGAGCAUCGCUGUCGAGCAA [Redixeri] (Eterna round: R96, puzzle: Exclusion NG 1)	19.3	18.3	11.5			
CAUAGUAAUUAGGAUAUCUGCCGGCUGAACCGAGGAGAAGGGAUUACAUGAGGAUCACCCAUGUGGUCCUAAGA [Relegebe] (puzzle: Exclusion 6)				14.5		
UGAUCUAGCGGAGGAUAUACAUGAGGAUCACCCAUGUAUAGGCUAUGACCGUAGUCGUGGCACGUGUAGAAGGCCGCUAGAUCU [JL ENG2 3.77] (Eterna round: R96, puzzle: Exclusion NG 2)	12.7	12.8	8.1			
GAAUAACAUGAGGAUCACCCAUGUUAGGAUAUGACGUCGUUUAGUCUUUAAACGAGCGUUAGAAGGAACAGGUG [Eternabot (L1) Solution 11] (Eterna round: R97, puzzle: Exclusion 1)	70.8	56.8				
CUACUGAAGCUUUGCUUUAGUCGACAUGAGGAUCACCCAUGUUAGGAUAUGGUAGGCUUUGCUUACUAGAAGGAUAGAGUGAUC [salish99_ExNG3_r04_603] (Eterna round: R96, puzzle: Exclusion NG 3)	121	54.8	55.9			
AAUUCACAUGAGGAUCACCCAUGUCAGGAUAUGGUUUCACGUGUUUCGGUGCUUGAGGCCAGAAGGGACAGCUA (puzzle: Exclusion 1)				62.4		
GUGUAGUCAGGAUAUACAGAGGAAGAUAAUACAAUAUAAGUACAUGAGGAUCACCCAUGUAGAAGGGACAGUGU [Excluse me!! 10 - Jieux - Exclusion 2] (puzzle: Exclusion 2)				25.7		
UAUUAGCAAGUGAGGUCCCACAUGAGGAUCACCCAUGUGCUCGUCUUAUAAGGUACUGUGACGAUAGUCACGGUACC [Mat - Sensor, turn-off var - Eli Mod - D51] (Eterna round: R97, puzzle: Sensor, turn-off variant 1)	45.4	45.5				
AGCAUGUUAGGAUAUGCCAAAAUUAACCACGACUCAGUGAUGCAGAAGGAACAUGAGGAUCACCCAUGUGCUCC [Eternabot (L1) Solution 16] (Eterna round: R97, puzzle: Exclusion 4)	219	38.2				
UUUUUUGUAGUGAGGAUAUCGUUGAGGAUGUGGAUCGAGAAGGCACAUGAGGAUCACCCAUGUUAGAUGUGGUU [JR_BMOE4_Sub083] (puzzle: Brourd's mod of Exclusion 4)				173		
AACUCUGAGAAGGAUAUUCAGUGGGAAACGACAGAAGAAGGUUUCACAUGAGGAUCACCCAUGUCGAAUAGUGA [EX6 #75] (Eterna round: R97, puzzle: Exclusion 6)	46.8	48.8				
UUUAAUUUUUUUUUUUUACAAGCUUUUUGCUCGUCUUAUACAUGAGGAUCACCCAUGUGGGUGAGGAGUAAAUUAUC [JMF 61] (puzzle: Sensor v3, turn-off variant 2)				19.1	37.9	66.7
AAAAUAAAGGCAGGAUAUCGGAGGCGCUGGCACCGAGAAGGGCCAGGGUGUCGUCAAAACAUGAGGAUCACCCAUGUGAGUGAC [Maanated] (Eterna round: R96, puzzle: Exclusion NG 1)	17.6	23	12.7			
ACAUGAGGAUCACCCAUGUUUGGCUGGUCCUCUCCGGCUGUCGAGGAUAUAGUACGGUAUCCGCGCUAGAAGGUGAGGGCCGGC [Aenatbe] (Eterna round: R96, puzzle: Exclusion NG 3)	16.4	17.1	10.1			
CUGCUCCGUGUAGGAUAUCGCCGCACCACCCGGCGAGAAGGACAUGAGGAUCACCCAUGUAUGUUAUUAUCACGUGUGGCGCGC [Design 40] (Eterna round: R96, puzzle: Exclusion NG 1)	17.6	15	11.7			
ACAAGCUUUUAGAUUUUCAACAUGAGGAUCACCCAUGUUCGUCUUAUGCUAGUGCUAGUGCGGUGUACUGGUAUUAG [JL TOV1 3.80 sellena mod] (Eterna round: R97, puzzle: Sensor, turn-off variant 1)	16.9	16				

Sequence	apparent KD of MS2 coat protein (input ligand: FMN 200 uM) [nM]	apparent KD of MS2 coat protein (input ligand: none) [nM]	apparent KD of MS2 coat protein [1] [nM]	apparent KD of MS2 coat protein [2] [nM]	apparent KD of MS2 coat protein (Eterna round: R95, input ligand: FMN 200 uM) [nM]	apparent KD of MS2 coat protein (Eterna round: R95, input ligand: none) [nM]
AAACUGUGAGGAUAUGGUGAGUAGUGCCUGAGCGCUGCUCACCAGAAGGCACAUGAGGAUCACCCAUGUAUAAC [Mat - Exclusion 4 - Mod of JL - D5] (puzzle: Exclusion 4)				22.4		
AGUAACUCAAGAGGAUAUCACAUGAGGAUCACCCAUGUAUAGCGCGCUAUGCUAGUCCUCGUAUUUGAGAAGGUUUGAUAAAUG [JL ViennaUCT Quve mod 2] (Eterna round: R96, puzzle: Exclusion NG 2)	16.8	17.2	13.1			
GGUUGGCGAGGAUAUACAUGAGGAUCACCCAUGUGGUCCUGUGGCUGAUCUAGCCUAUGUAGAAGGCGCAAAUC [salish99_ex3_r4_013] (Eterna round: R97, puzzle: Exclusion 3)	311	139				
CUCCUACAUGAGGAUCACCCAUGUCAGGAUAUCUCAGUAGCACCUAAAGGUGCUACCCAGAGAAGGGACGUGCA [Enororce] (puzzle: Exclusion 1)				11.1		
UUAAUGAUUGUGAGGAUAUCGGAUAGAUAGAUAUUUGAGAAGGUACAUGAGGAUCACCCAUGUGUGAUUAGAGA [Brourd's EX4 #67] (Eterna round: R97, puzzle: Brourd's mod of Exclusion 4)	155	111				
UUGUGCACGCUGCGGUCCUACAUGAGGAUCACCCAUGUGGUCUGGUGGCGUGGGUCGCCGGACUUGGCUCGUCUUGA [salish99_S_TOV1_R5_027] (Eterna round: R97, puzzle: Sensor, turn-off variant 1)	18.4	18.8				
GAUUUAGAGCAGGAUAUCAUAGAAUUGUAUGAAUGAGAAGGGCUCACAUGAGGAUCACCCAUGUGGUCCUAGAU [JL Dibiri mod 21] (puzzle: Exclusion 6)				21.7		
GGAGGUAUUUAGGAUAUGAUGUACGACGCAGGUUCAGAAGGGAGUACAUGAGGAUCACCCAUGUGGCCUCAUCC [Eternabot (L2) Solution 47] (Eterna round: R97, puzzle: Exclusion 6)	1200	2010				
CGUCCUGAUGACAACUUACAUGAGGAUCACCCAUGUGCCUCGCAGGAUAUCCCAGCACGUCGCAAGGAGAAGGGCGACGCGCCA [Ceeninge] (Eterna round: R96, puzzle: Exclusion NG 3)	18	19	13.7			
GCAGCAUAGUCGGAAUACGACAUACAUGAGGAUCACCCAUGUCAGGAUAUGGUCUGGAUUACAGGCCAGAAGGGACAAAGCUGC [Eli exng3 - 007] (Eterna round: R96, puzzle: Exclusion NG 3)	24.8	20.1	17.1			
CUGCUCCGUGUAGGAUAUGCAUACCACCACUAUGCAGAAGGACAUGAGGAUCACCCAUGUAUGUUAUUAUCACGUGAAGCGUCC [Design 19] (Eterna round: R96, puzzle: Exclusion NG 1)	27.8	23.7	18.1			
UCUAUAGGGCUGCAGGCUUACAUGAGGAUCACCCAUGUAUAGGGUUUUCUACGCGCUCGUCAUCAUACAUUAAUUCG [Eternabot (L1) Solution 31] (Eterna round: R97, puzzle: Sensor, turn-off variant 1)	44	53.1				
AGAUCUAGGACAGGAUAUACAGAUGGCUUCAUCGAAGAUGAAGCCAUUACAUGAGGAUCACCCAUGUAGAAGGGUCCUAGAUCA [Omei Exc(NG) 2Av5] (Eterna round: R96, puzzle: Exclusion NG 2)	17.7	14.2	12			
CCUCCGCAUUAGGAUAUCGUCACAGAAAUGUGACGAGAAGGAAUGACAUGAGGAUCACCCAUGUUAACGUGAUG [Mod of Brourd 15 - Jieux - Exclusion 6] (Eterna round: R97, puzzle: Exclusion 6)	276	48.7				
GACCUCACGGUCAGGAUAUCAGAACGUAAUGCGCAUGAGAAGGGACAUGAGGAUCACCCAUGUGGGCUCGUCGC [Maedvequ] (puzzle: Brourd's mod of Exclusion 4)				11.8		
UGCAGACGAGGAUAUAGAUUUGAUAACAUGAGGAUCACCCAUGUGAUCGAUAGAUCAGAUUUAGAAGGUGUCUGCA [E5/8-B2] (Eterna round: R97, puzzle: Exclusion 5)	579	431				
GGCGGACAUGAGGAUCACCCAUGUCAGGAUAUUAGGCGAUCGUCGAAAGACGAUAGCCUGAGAAGGGACGCGCC [Eli x1 4.13] (Eterna round: R97, puzzle: Exclusion 1)	20.6	17.7				
